B1: 10G7: HLA-A2-restricted T cell clone/TCR recognizing HSP105-derived peptide; SEQ ID NO: 197, 198 (protein, listed as Homo sapiens)
chain 1: MWGVFLLYVSMKMGGTTGQNIDQPTEMTATEGAIVQINCTYQTSGFNGLFWYQQHAGEAPTFLSYNVLDGLEEKGRFSSFLSRSKGYSYLLLKELQMKDSASYLCAVRALREAGTALIFGKGTTLSVSS
chain 2: MDTWLVCWAIFSLLKAGLTEPEVTQTPSHQVTQMGQEVILRCVPISNHLYFYWYRQILGQKVEFLVSFYNNEISEKSEIFDDQFSVERPDGSNFTLKIRSTKLEDSAMYFCASSQNREAFFGQGTRLTVV
B2: 7B9: HLA-A2-restricted T cell clone/TCR recognizing HSP105-derived peptide; SEQ ID NO: 195, 196 (protein, listed as Homo sapiens)
chain 1: METLLGVSLVILWLQLARVNSQQGEEDPQALSIQEGENATMNCSYKTSINNLQWYRQNSGRGLVHLILIRSNEREKHSGRLRVTLDTSKKSSSLLITASRAADTASYFCATDTGGAQKLVFGQGTRLTINP
chain 2: MDSWTLCCVSLCILVAKHTDAGVIQSPRHEVTEMGQEVTLRCKPISGHDYLFWYRQTMMRGLELLIYFNNNVPIDDSGMPEDRFSAKMPNASFSTLKIQPSEPRDSAVYFCASSPDRGETQYFGPGTRLLVL
B3: 11B9: HLA-A2-restricted T cell clone/TCR recognizing HSP105-derived peptide; SEQ ID NO: 193, 194 (protein, listed as Homo sapiens)
chain 1: MACPGFLWALVISTCLEFSMAQTVTQSQPEMSVQEAETVTLSCTYDTSESDYYLFWYKQPPSRQMILVIRQEAYKQQNATENRFSVNFQKAAKSFSLKISDSQLGDAAMYFCAYRIPGAGSYQLTFGKGTKLSVIP
chain 2: MGTRLLCWVVLGFLGTDHTGAGVSQSPRYKVAKRGQDVALRCDPISGHVSLFWYQQALGQGPEFLTYFQNEAQLDKSGLPSDRFFAERPEGSVSTLKIQRTQQEDSAVYLCASSPGLAGGAQETQYFGPGTRLLVL
B4: 10C9: HLA-A2-restricted T cell clone/TCR recognizing HSP105-derived peptide; SEQ ID NO: 202, 203 (protein, listed as Homo sapiens)
chain 1: MSLSSLLKVVTASLWLGPGIAQKITQTQPGMFVQEKEAVTLDCTYDTSDPSYGLFWYKQPSSGEMIFLIYQGSYDQQNATEGRYSLNFQKARKSANLVISASQLGDSAMYFCAMRDRNTGNQFYFGTGTSLTVIP
chain 2: MGFRLLCCVAFCLLGAGPVDSGVTQTPKHLITATGQRVTLRCSPRSGDLSVYWYQQSLDQGLQFLIQYYNGEERAKGNILERFSAQQFPDLHSELNLSSLELGDSALYFCASSVEVYNEQFFGPGTRLTVL

Columns and labels:
[1] = test system: T2 cells to which the peptide had been exogenously bound
Experimental: (§1) Target cells were labeled with a fluorescent dye (calcein) and cocultured with each T cell clone for 4 hours, and the cytotoxic activities against target cells were evaluated on the basis of attenuation of fluorescence as an indicator. […] The cytotoxic activities were evaluated with cancer cell lines endogenously expressing HSP105 as targets. Caski cells and SiHa-A2 cells were used as HSP105-positive cell lines, and an SW620 cell line and HepG2 cell line were used as HSP105-negative cell lines.

[2] = test system: T2 cells to which an HSP105-derived peptide had been exogenously bound; assay: IFN-γ ELISPOT of HLA-A2-restricted HSP105-specific T cell clones; assay type: cell-based; conditions: coculture with HLA-A2 T2 cells in the presence of the peptide, 20 hours
Experimental: HSP105-HLA-A2 Dextramer was not capable of being sufficiently stained, thus being unavailable for detection of binding T cells. […] CD107a-positive CD8 T cells were selected by single sorting, and cultured on allofeeder cells to establish T cell clones.
The established T cell clones were cocultured with target cells (T2 cells) to which an HSP105-derived peptide had been exogenously bound for 20 hours, and the antigen stimulation-dependent IFN-γ productions were evaluated. The antigen specificities were evaluated by using cells to which a HIV-derived peptide had been bound as a negative control.

Experimental for CasKi cell line: as §1
Experimental for SW620 cell line: as §1
Experimental for SiHaA2 cell line: as §1

Molecule	cytotoxic activity (CasKi cell line)	cytotoxic activity (SiHaA2 cell line)	damaging (cytotoxic) activity [1]	antigen-specific IFN-γ production capability [2]	cytotoxic activity (SW620 cell line)
B1	significant cytotoxic activity	No significant cytotoxic activity	exhibited damaging activity	strong IFN-γ production capability	No significant cytotoxic activity
B2	significant cytotoxic activity	No significant cytotoxic activity	–	strong IFN-γ production capability	No significant cytotoxic activity
B3	–	–	–	largely lower reactivity than the other clones	–
B4	significant cytotoxic activity	No significant cytotoxic activity	exhibited damaging activity	strong IFN-γ production capability	No significant cytotoxic activity

From patent publication US20250339504A1, “CANCER VACCINE WITH USE OF COMMON CANCER ANTIGEN COCKTAIL, TCR/CAR-T CELL THERAPEUTIC, COMPANION DIAGNOSTIC METHOD, AND METHOD FOR DIAGNOSING RISK OF CANCER ONSET BY DETECTING CIRCULATING TUMOR CELLS” (National Cancer Center, priority 2022, published 2025)
